Our source for the Kd values is PMC3843637.

In assay [1] the target is phosphomimetic Smad3 fragment S3LMH2EEE (linker and MH2 domain, amino acids 167 to 425) (human) (UniProt P84022). Put plainly: ITC. (In general: Isothermal titration calorimetry measures the heat released or taken up as one component is titrated into another.)
Assay [2] has as its target S3LMH2EEE/S4LMH2 heterotrimer (human) (UniProt P84022). Put plainly: ITC.

Where “and” joins values, the source holds several entries; their conditions need not be identical. Equal values may be shown once.

B1: MAN1 fragment from amino acids 755 to 911 (MAN1Luhm) (domain or fragment)
chain: DKILVIPSKVWQGQAFHLDRRNSPPNSLTPCLKIRNMFDPVMEIGDQWHLAIQEAILEKCSDNDGIVHIAVDKNSREGCVYVKCLSPEYAGKAFKALHGSWFDGKLVTVKYLRLDRYHHRFPQALTSNTPLKPSNKHMNSMSHLRLRTGLTNSQGSS
Regarding B1, the Kd in assay [1] is 1170 nM and 1350 nM; in assay [2], 1500 nM and 1370 nM.

What is called Kd is the free concentration of one partner at which half of the binding sites on the other are occupied at equilibrium, for simple one-to-one binding.
